# IntAct's records for PubMed 19596235
# B1: Structure-specific endonuclease subunit SLX4 (Homo sapiens), Q8IY92 (parent)
# chain: MKLSVNEAQLGFYLGSLSHLSACPGIDPRSSEDQPESLKTGQMMDESDEDFKELCASFFQRVKKHGIKEVSGERKTQKAASNGTQIRSKLKRTKQTATKTKTLQGPAEKKPPSGSQAPRTKKQRVTKWQASEPAHSVNGEGGVLASAPDPPVLRETAQNTQTGNQQEPSPNLSREKTRENVPNSDSQPPPSCLTTAVPSPSKPRTAQLVLQRMQQFKRADPERLRHASEECSLEAAREENVPKDPQEEMMAGNVYGLGPPAPESDAAVALTLQQEFARVGASAHDDSLEEKGLFFCQICQKNLSAMNVTRREQHVNRCLDEAEKTLRPSVPQIPECPICGKPFLTLKSRTSHLKQCAVKMEVGPQLLLQAVRLQTAQPEGSSSPPMFSFSDHSRGLKRRGPTSKKEPRKRRKVDEAPSEDLLVAMALSRSEMEPGAAVPALRLESAFSERIRPEAENKSRKKKPPVSPPLLLVQDSETTGRQIEDRVALLLSEEVELSSTPPLPASRILKEGWERAGQCPPPPERKQSFLWEGSALTGAWAMEDFYTARLVPPLVPQRPAQGLMQEPVPPLVPPEHSELSERRSPALHGTPTAGCGSRGPSPSASQREHQALQDLVDLAREGLSASPWPGSGGLAGSEGTAGLDVVPGGLPLTGFVVPSQDKHPDRGGRTLLSLGLLVADFGAMVNNPHLSDVQFQTDSGEVLYAHKFVLYARCPLLIQYVNNEGFSAVEDGVLTQRVLLGDVSTEAARTFLHYLYTADTGLPPGLSSELSSLAHRFGVSELVHLCEQVPIATDSEGKPWEEKEAENCESRAENFQELLRSMWADEEEEAETLLKSKDHEEDQENVNEAEMEEIYEFAATQRKLLQEERAAGAGEDADWLEGGSPVSGQLLAGVQVQKQWDKVEEMEPLEPGRDEAATTWEKMGQCALPPPQGQHSGARGAEAPEQEAPEEALGHSSCSSPSRDCQAERKEGSLPHSDDAGDYEQLFSSTQGEISEPSQITSEPEEQSGAVRERGLEVSHRLAPWQASPPHPCRFLLGPPQGGSPRGSHHTSGSSLSTPRSRGGTSQVGSPTLLSPAVPSKQKRDRSILTLSKEPGHQKGKERRSVLECRNKGVLMFPEKSPSIDLTQSNPDHSSSRSQKSSSKLNEEDEVILLLDSDEELELEQTKMKSISSDPLEEKKALEISPRSCELFSIIDVDADQEPSQSPPRSEAVLQQEDEGALPENRGSLGRRGAPWLFCDRESSPSEASTTDTSWLVPATPLASRSRDCSSQTQISSLRSGLAVQAVTQHTPRASVGNREGNEVAQKFSVIRPQTPPPQTPSSCLTPVSPGTSDGRRQGHRSPSRPHPGGHPHSSPLAPHPISGDRAHFSRRFLKHSPPGPSFLNQTPAGEVVEVGDSDDEQEVASHQANRSPPLDSDPPIPIDDCCWHMEPLSPIPIDHWNLERTGPLSTSSPSRRMNEAADSRDCRSPGLLDTTPIRGSCTTQRKLQEKSSGAGSLGNSRPSFLNSALWDVWDGEEQRPPETPPPAQMPSAGGAQKPEGLETPKGANRKKNLPPKVPITPMPQYSIMETPVLKKELDRFGVRPLPKRQMVLKLKEIFQYTHQTLDSDSEDESQSSQPLLQAPHCQTLASQTYKPSRAGVHAQQEATTGPGAHRPKGPAKTKGPRHQRKHHESITPPSRSPTKEAPPGLNDDAQIPASQESVATSVDGSDSSLSSQSSSSCEFGAAFESAGEEEGEGEVSASQAAVQAADTDEALRCYIRSKPALYQKVLLYQPFELRELQAELRQNGLRVSSRRLLDFLDTHCITFTTAATRREKLQGRRRQPRGKKKVERN
# Variants of: B1
# Conditions: with plk1_human PLK1, P53350
# Sequence of plk1_human PLK1, P53350 (P53350 whole entry): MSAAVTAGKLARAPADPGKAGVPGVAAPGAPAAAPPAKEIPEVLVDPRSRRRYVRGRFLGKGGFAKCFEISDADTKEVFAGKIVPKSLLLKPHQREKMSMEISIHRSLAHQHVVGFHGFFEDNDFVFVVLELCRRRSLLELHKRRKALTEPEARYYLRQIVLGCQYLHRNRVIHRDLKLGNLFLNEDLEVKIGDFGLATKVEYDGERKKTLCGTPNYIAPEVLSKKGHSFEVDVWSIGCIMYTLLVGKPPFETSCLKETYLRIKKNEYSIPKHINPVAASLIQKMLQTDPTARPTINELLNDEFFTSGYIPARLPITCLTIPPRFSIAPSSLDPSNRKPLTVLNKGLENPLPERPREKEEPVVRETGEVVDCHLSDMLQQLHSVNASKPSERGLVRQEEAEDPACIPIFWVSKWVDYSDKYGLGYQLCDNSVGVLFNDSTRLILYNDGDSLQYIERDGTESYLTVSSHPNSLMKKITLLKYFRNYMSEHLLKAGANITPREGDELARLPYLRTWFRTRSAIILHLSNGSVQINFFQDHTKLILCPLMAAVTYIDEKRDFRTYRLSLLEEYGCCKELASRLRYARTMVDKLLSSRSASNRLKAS
row,Variant,effect of a mutation on the interaction
1,S1453A,decreasing interaction
